Laboratory results reported in article PMC2581436, “Role of Amphipathic Helix of a Herpesviral Protein in Membrane Deformation and T Cell Receptor Downregulation” (PLoS Pathogens, 2008).

Biological target: the molecule itself
Assay: native gel or EMSA; Blue Native PAGE (10% native gel) of whole-cell lysates of 293T cells solubilized with 2.5% Triton X-100; GFP fusions detected by anti-GFP immunoblot; markers aldolase ~160 kDa and BSA 66/132 kDa

B1: GFP-Tip^211-256 (domain or fragment)
chain: ANERNIVKDLKRLENKINVIICLVVVILAVLLLVTVLSILHIGMKS
notes: source: 293T, transiently expressing, detergent-solubilized lysate
  stoichiometry N: ~4
